# Assay results: patent publication US20210301025A1 (published 2021)
# Where a chain is given by its changes, count along the chain named. Numbers in names are those of the source.
# B1: P54AR4-83v2 L32C, NEM conjugate (designed binder, not shown: small tags and cut ends)
# chain: LPAPKNLVVSEVTEDSARLSWDDPWAFYESFCIQYQESEKVGEAIVLTVPGSERSYDLTGLKPGTEYTVSIYGVHNVYKDTNMRGLPLSAIFTT
# modifications: N-ethyl maleimide (NEM) on Cys 32
# B2: P54AR4-83v2 R18C, NEM conjugate (designed binder, not shown: small tags and cut ends)
# chain: B1 chain with R18C, C32L
# modifications: N-ethyl maleimide (NEM) on Cys 18
# B3: P54AR4-83v2 P2C, NEM conjugate (designed binder, not shown: small tags and cut ends)
# chain: B1 chain with P2C, C32L
# modifications: N-ethyl maleimide (NEM) on Cys 2
# B4: P54AR4-83v2 L88C, NEM conjugate (designed binder, not shown: small tags and cut ends)
# chain: B1 chain with C32L, L88C
# modifications: N-ethyl maleimide (NEM) on Cys 88
# B5: P54AR4-83v2 N82C, NEM conjugate (designed binder, not shown: small tags and cut ends)
# chain: B1 chain with C32L, N82C
# modifications: N-ethyl maleimide (NEM) on Cys 82
# B6: P54AR4-83v2 L86C, NEM conjugate (designed binder, not shown: small tags and cut ends)
# chain: B1 chain with C32L, L86C
# modifications: N-ethyl maleimide (NEM) on Cys 86
# B7: P54AR4-83v2 P87C, NEM conjugate (designed binder, not shown: small tags and cut ends)
# chain: B1 chain with C32L, P87C
# modifications: N-ethyl maleimide (NEM) on Cys 87
# B8: P54AR4-83v2 P4C, NEM conjugate (designed binder, not shown: small tags and cut ends)
# chain: B1 chain with P4C, C32L
# modifications: N-ethyl maleimide (NEM) on Cys 4
# B9: P54AR4-83v2 M83C, NEM conjugate (designed binder, not shown: small tags and cut ends)
# chain: B1 chain with C32L, M83C
# modifications: N-ethyl maleimide (NEM) on Cys 83
# B10: P54AR4-83v2 P63C, NEM conjugate (designed binder, not shown: small tags and cut ends)
# chain: B1 chain with C32L, P63C
# modifications: N-ethyl maleimide (NEM) on Cys 63
# B11: P54AR4-83v2 N76C, NEM conjugate (designed binder, not shown: small tags and cut ends)
# chain: B1 chain with C32L, N76C
# modifications: N-ethyl maleimide (NEM) on Cys 76
# B12: P54AR4-83v2 N6C, NEM conjugate (designed binder, not shown: small tags and cut ends)
# chain: B1 chain with N6C, C32L
# modifications: N-ethyl maleimide (NEM) on Cys 6
# B13: P54AR4-83v2 P50C, NEM conjugate (designed binder, not shown: small tags and cut ends)
# chain: B1 chain with C32L, P50C
# modifications: N-ethyl maleimide (NEM) on Cys 50
# B14: P54AR4-83v2 P24C, NEM conjugate (designed binder, not shown: small tags and cut ends)
# chain: B1 chain with P24C, C32L
# modifications: N-ethyl maleimide (NEM) on Cys 24
# B15: P54AR4-83v2 Q34C, NEM conjugate (designed binder, not shown: small tags and cut ends)
# chain: B1 chain with C32L, Q34C
# modifications: N-ethyl maleimide (NEM) on Cys 34
# B16: P54AR4-83v2 L47C, NEM conjugate (designed binder, not shown: small tags and cut ends)
# chain: B1 chain with C32L, L47C
# modifications: N-ethyl maleimide (NEM) on Cys 47
# Target: T1, EGFR (form used in the assay not stated) (human, UniProt P00533 25-645, limits assumed)
# Experiment: ELISA, NEM conjugate, 10 nM
row,Binder,binding relative to P54AR4-83v2 parent [ratio]
1,B1,0.87
2,B2,0.86
3,B3,0
4,B4,0.95
5,B5,0.56
6,B6,0.77
7,B7,0.73
8,B8,0.02
9,B9,0.07
10,B10,0.95
11,B11,0.75
12,B12,0.76
13,B13,0.91
14,B14,0.45
15,B15,0.89
16,B16,0.92

# Target: T1, EGFR (form used in the assay not stated)
# Experiment: ELISA, NEM conjugate, 100 nM
row,Binder,binding relative to P54AR4-83v2 parent [ratio]
1,B1,1.01
2,B2,1.05
3,B3,0
4,B4,1.03
5,B5,0.97
6,B6,0.96
7,B7,0.93
8,B8,0.02
9,B9,0.04
10,B10,1.02
11,B11,0.97
12,B12,1.01
13,B13,1.05
14,B14,0.85
15,B15,1.03
16,B16,1.02

# Target: T1, EGFR (form used in the assay not stated)
# Experiment: ELISA, NEM conjugate, 500 nM
row,Binder,binding relative to P54AR4-83v2 parent [ratio]
1,B1,0.91
2,B2,0.94
3,B3,0.01
4,B4,0.97
5,B5,0.96
6,B6,0.92
7,B7,0.91
8,B8,0.12
9,B9,0.24
10,B10,0.92
11,B11,0.91
12,B12,0.89
13,B13,0.97
14,B14,0.83
15,B15,0.94
16,B16,0.91
